{"source": "patent US8415106B2", "about": "“Cell-based screen for agents useful for reducing neuronal demyelination or promoting neuronal remyelination” (Myelin Repair Foundation, Inc., priority 2005, dated 2013)", "key": {"Stat1": {"tested_on": "Stat1", "test": "Stat1 nuclear translocation assay in mixed primary oligodendrocyte cultures", "format": "cell-based, mice", "conditions": "100 U/mL IFN-γ for 30 min, one hundred PLP positive cells counted", "method": "Mixed primary oligodendrocyte cultures were prepared as previously described (Baerwald et al., 2000). Briefly, brain tissue was harvested from 2-3-day-old newborn pups of PLP/SOCS1 and C57B1/6J matings. Because the litters contained transgenic and wild-type pups, the brain of each animal was processed individually, cultured separately, and later genotype matched. Each brain was digested separately using 0.25% trypsin and 10 μg/ml of DNAaseI (Invitrogen) in Dulbecco's modified Eagle's medium (DMEM) for 20 min at 37° C., and cells were cultured on separate poly-D-lysine-coated […] flasks (Sigma-Aldrich). The cultures were maintained with 10% fetal bovine serum DMEM at 37° C. with 5% CO2 for 12 days, and then switched to a defined medium containing […] of insulin, 50 μg/ml of transferrin, 30 nM of selenium, 10 nM of biotin, 1 nM of progesterone, 15 nM of T3, 0.1% bovine serum albumin, and 1% […] (Sigma-Aldrich). […] One hundred PLP positive cells were manually counted in both wild-type and PLP/SOCS1 cultures. […]\nThe responsiveness of PLP/SOCS1 oligodendrocytes to IFN-γ was studied in primary mixed glial cultures. […] In contrast, Stat1 nuclear translocation was detected only in occasional PLP positive oligodendrocytes (6±2 cells) following IFN-γ stimulation (p<0.05)."}, "[1]": {"tested_on": "developing oligodendrocytes and myelin", "test": "IFN-γ-overexpressing mice crossed to PLP/SOCS1 mice: tremor, oligodendrocyte density, G ratio, unmyelinated axons at postnatal day 21", "format": "in vivo", "conditions": "for Incidence of tremor: 172 × PLP/SOCS1 system", "from_the_text": "The transgenic mice MBP/IFN-γ and GFAP/tTA×TRE/IFN-γ (lines 184/110 and 184/67) that overexpress IFN-γ in the CNS have been described elsewhere (Corbin et al., 1996; Gao et al., 2000; Lin et al., 2004, 2005). Briefly, MBP/IFN-γ mice are transgenic animals in which IFN-γ expression is driven by the myelin basic protein (MBP) transcriptional control region (Gao et al., 2000). GFAP/tTA×TRE/IFN-γ are double-transgenic mice obtained by mating single-transgenic GFAP/tTA to single-transgenic TRE/IFN-γ (lines 110 and 67) mice. The two TRE/IFN-γ mouse lines, line 110 and line 67, used in the experiments produce different amounts of IFN-γ when crossed to GFAP/tTA mice (184/110 and 184/67) (Lin et al., 2004, 2005). GFAP/tTA×TRE/IFN-γ is a tetracycline-off-inducible system in which the glial fibrilary acidic protein (GFAP) transcriptional control region drives the expression of tTA, which in turn, binds to the TRE (tet responsive element) and initiates the expression of IFN-γ. Administration of doxycycline suppresses tTA DNA binding and IFN-γ expression, and doxycycline removal allows for temporally-controlled induction of IFN-γ expression (Gao et al., 1999).\nIFN-γ-overexpressing mice were crossed to the PLP/SOCS1 mice in double-transgenic, (MBP/IFN-γ×PLP/SOCS1) and triple-transgenic (GFAP/tTA×TRE/IFN-γ×PLP/SOCS1) mating systems. MBP/IFN-γ×PLP/SOCS1 (172×PLP/SOCS1) mating was performed according to a standard mating protocol. The GFAP/tTA×TRE/IFN-γ×PLP/SOCS1 matings were performed in a 2-step mating process: GFAP/tTA mice were initially crossed to PLP/SOCS1 mice, and double-positive (184×PLP/SOCS1) offspring were then crossed to the TRE/IFN-γ lines 110 and 67, separately. This second mating step was performed according to the previously described “tet-off” protocol. Doxycycline 0.05 mg/ml (Sigma-Aldich) was added to the water of impregnated female mice until embryonic day 14, after which the animals were switched back to normal water, thereby allowing initiation of IFN-γ transcription, which peaks during the postnatal period (Lin et al., 2005).\nThe litters of the mating systems (F1 generation) were examined daily and sacrificed at postnatal day 21. Clinical evaluation included behavioral observation and challenged ladder walking to elicit tremor. Histological examination included quantitation of the number and density of oligodendrocytes and examination of the myelination patterns. Brain tissue was simultaneously obtained from each animal at the time of sacrifice to verify and measure the expression of IFN-γ and Flag-SOCS1 (see below). The clinical and histological findings were subsequently stratified according to genotype. All animal procedures were conducted in compliance with the National Institutes of Health Guide for Care and Use of Laboratory Animals and were approved by the Institutional Animal Care and Use Committee at The University of Chicago.\nOligodendrocyte cell density was assessed digitally using Axiovision software, at postnatal day 21, as previously described (Lin et al., 2005). The brains were sectioned sagittally through the corpus callosum dividing the brain in two symmetrical halves. Ten frozen sections from each half were prepared at 7 μm thickness, and numbered in the sequence of their preparation. The brains of three animals per study group were prepared in this fashion. Following the CC1 immunostaining the corresponding area of corpus callosum of each section was digitally selected and the corresponding total area obtained. CC1 cell counting was performed manually within the selected areas of each section, and the number of CC1 positive cells per square area (mm^2) calculated. The results were presented as mean±SD of CC1 (+) cells/mm^2 with n=3 animals per study group. […]"}, "[2]": {"conditions": "184/67×PLP/SOCS1 mice (IFN-γ and SOCS1)"}, "[3]": {"conditions": "184/110×PLP/SOCS1 mice (IFN-γ and SOCS1)"}}}
{"molecule": "IFN-γ: pleotropic cytokine secreted by activated T lymphocytes and natural killer cells; recombinant rat IFN-γ added to cultures or transgenically expressed in mouse CNS (protein, UniProt P01581 23-156, looked up) Interferon gamma: QGTLIESLESLKNYFNSSSMDAMEGKSLLLDIWRNWQKDGNTKILESQIISFYLRLFEVLKDNQAISNNISVIESHLITNFFSNSKAKKDAFMSIAKFEVNNPQIQHKAVNELIRVIHQLSPESSLRKRKRSRC", "values": [{"measurement": "PLP positive oligodendrocytes with Stat1 nuclear translocation", "setting": "Stat1; PLP/SOCS1 cultures", "result": "6±2", "unit": "cells"}, {"measurement": "PLP positive oligodendrocytes with Stat1 nuclear translocation", "setting": "Stat1; wild-type cultures", "result": "96±3", "unit": "cells"}, {"measurement": "Incidence of tremor", "setting": "[1]; mice expressing IFN-γ only", "result": 0, "unit": "%"}, {"measurement": "Incidence of tremor", "setting": "[1]; mice expressing both IFN-γ and SOCS1", "result": 0, "unit": "%"}, {"measurement": "G ratio (axon diameter/fiber diameter ratio)", "setting": "[1]; 184/67 mice (IFN-γ only)", "result": "0.95±0.04"}, {"measurement": "percentage of unmyelinated axons", "setting": "[1]; 184/67 mice (IFN-γ only)", "result": "57%±7"}, {"measurement": "oligodendrocytes lost", "setting": "[1]; 184/67 mice (IFN-γ only) versus wild-type", "result": "approximately 40%"}, {"measurement": "oligodendrocyte density", "setting": "[1]; 184/67 mice (IFN-γ only), wild-type 144±5", "result": "79±9 CC1 (+) cells/mm^2"}, {"measurement": "G ratio (axon diameter/fiber diameter ratio)", "setting": "[1]; [2]", "result": "0.82±0.08"}, {"measurement": "percentage of unmyelinated axons", "setting": "[1]; [2]", "result": "17%±4.5"}, {"measurement": "oligodendrocytes lost", "setting": "[1]; 184/67×PLP/SOCS1 mice (IFN-γ and SOCS1) versus PLP/SOCS1", "result": "approximately 15%"}, {"measurement": "oligodendrocyte density", "setting": "[1]; 184/67×PLP/SOCS1 mice (IFN-γ and SOCS1), PLP/SOCS1 142±5", "result": "112±7 CC1 (+) cells/mm^2"}, {"measurement": "percentage of unmyelinated axons", "setting": "[1]; 184/110 mice (IFN-γ only)", "result": "41%±6"}, {"measurement": "oligodendrocytes lost", "setting": "[1]; 184/110 mice (IFN-γ only) versus wild-type", "result": "approximately 20%"}, {"measurement": "G ratio (axon diameter/fiber diameter ratio)", "setting": "[1]; 184/110 mice (IFN-γ only), hypomyelination defined as G ratio >0.8", "result": "0.89±0.02"}, {"measurement": "oligodendrocyte density", "setting": "[1]; 184/110 mice (IFN-γ only), wild-type 146±6", "result": "115±8 CC1 (+) cells/mm^2"}, {"measurement": "G ratio (axon diameter/fiber diameter ratio)", "setting": "[1]; [3]", "result": "0.75±0.03"}, {"measurement": "percentage of unmyelinated axons", "setting": "[1]; [3]", "result": "13%±3"}, {"measurement": "oligodendrocytes lost", "setting": "[1]; 184/110×PLP/SOCS1 mice (IFN-γ and SOCS1) versus PLP/SOCS1", "result": "approximately 8%"}, {"measurement": "oligodendrocyte density", "setting": "[1]; 184/110×PLP/SOCS1 mice (IFN-γ and SOCS1), PLP/SOCS1 141±6", "result": "129±6 CC1 (+) cells/mm^2"}, {"measurement": "percentage of unmyelinated axons", "setting": "[1]; MBP/IFN-γ×PLP/SOCS1 (172×PLP/SOCS1) littermates, regardless of genotype", "result": "less than 9%"}]}
